Laboratory results taken from the supplement of paper PMC11780869.

Tested on: Bacillus subtilis
Experiment: cleaved RNA product abundance (RNA/gDNA barcode ratio) relative to median wild-type variant (ratio to wild type); higher = more accumulation of the downstream cleavage product
Settings: cleavage site: cggR-gapA (positions -7 to +36 mutated)
Summary of the method: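 Cleaved product abundance for each construct is its RNA-to-gDNA barcode ratio, scaled to the median construct carrying the unmutated site. Cleaved RNA was isolated on a gel, reverse transcribed and barcode-sequenced, with genomic DNA barcodes sequenced alongside and UMIs collapsed. The reporters were truncated aprE or tetM mRNAs with barcoded, mutagenized RNase Y cleavage-site windows integrated into the B. subtilis chromosome, and cultures grew in LB at 37°C from OD600 0.0003 to 0.3.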

[1] = experiment (reporter, strain, medium): exp 2b: truncated aprE reporter, strain BJT200
[2] = experiment (reporter, strain, medium): exp 4a: truncated aprE reporter, strain BJT201 with 2% xylose (RNase J1 expressed)
[3] = experiment (reporter, strain, medium): exp 6: tetM reporter, strain 168

Sequence	cleaved RNA product abundance [1]	cleaved RNA product abundance [2]	cleaved RNA product abundance [3]
ACAGACGAAGGAGCCGCAAAGGAGCTATTAAGGGATGAATAATCCCTCAATATAAATATCTCTCACTTATTTAAA	0.502	–	–
ACAGACGAAGGAGCCGCAAAGGAGTTAATAAGGGATGAATAATCCCTCAATATAAATATCTCTCACTTATTTAAA	0.34	0.436	–
ACAGACGAAGGAGCCGCAAAGGAGTTATTAAAGGATGAATAATCCCTCAATATAAATATCTCTCACTTATTTAAA	0.161	0.108	–
ACAGACGAAGGAGCCGCAAAGGAGTTATTAAGAGATGAATAATCCCTCAATATAAATATCTCTCACTTATTTAAA	–	0.199	–
ACAGACGAAGGAGCCGCAAAGGAGTTATTAAGGAATGAATAATCCCTCAATATAAATATCTCTCACTTATTTAAA	–	0.144	–
ACAGACGAAGGAGCCGCAAAGGAGTTATTAAGGGAAGAATAATCCCTCAATATAAATATCTCTCACTTATTTAAA	0.495	–	–
ACAGACGAAGGAGCCGCAAAGGAGTTATTAAGGGATAAATAATCCCTCAATATAAATATCTCTCACTTATTTAAA	0.828	0.789	–
ACAGACGAAGGAGCCGCAAAGGAGTTATTAAGGGATGAAAAATCCCTCAATATAAATATCTCTCACTTATTTAAA	–	0.576	–
ACAGACGAAGGAGCCGCAAAGGAGTTATTAAGGGATGAAGAATCCCTCAATATAAATATCTCTCACTTATTTAAA	–	0.859	–
ACAGACGAAGGAGCCGCAAAGGAGTTATTAAGGGATGAATAATACCTCAATATAAATATCTCTCACTTATTTAAA	0.131	0.192	–
ACAGACGAAGGAGCCGCAAAGGAGTTATTAAGGGATGAATAATCCCCCAATATAAATATCTCTCACTTATTTAAA	–	0.247	–
ACAGACGAAGGAGCCGCAAAGGAGTTATTAAGGGATGAATAATCCCTCAATAAAAATATCTCTCACTTATTTAAA	0.165	–	–
ACAGACGAAGGAGCCGCAAAGGAGTTATTAAGGGATGAATAATCCCTCAATATAAATATCTCTCACTTATTTAAA	1.06	0.982	0.911
ACAGACGAAGGAGCCGCAAAGGAGTTATTAAGGGATGAATAATCCCTCAATATCAATATCTCTCACTTATTTAAA	–	0.134	–
ACAGACGAAGGAGCCGCAAAGGAGTTATTAAGGGATGAATAATCCCTCACTATAAATATCTCTCACTTATTTAAA	–	0.302	–
ACAGACGAAGGAGCCGCAAAGGAGTTATTAAGGGATGAATAATCCCTGAATATAAATATCTCTCACTTATTTAAA	–	0.361	–
ACAGACGAAGGAGCCGCAAAGGAGTTATTAAGGGATGAATAATTCCTCAATATAAATATCTCTCACTTATTTAAA	0.328	–	–
ACAGACGAAGGAGCCGCAAAGGAGTTATTAAGGGATGACTAATCCCTCAATATAAATATCTCTCACTTATTTAAA	0.423	0.596	–
ACAGACGAAGGAGCCGCAAAGGAGTTATTAAGTGATGAATAATCCCTCAATATAAATATCTCTCACTTATTTAAA	–	0.162	–
ACAGACGAAGGAGCCGCAAAGGAGTTATTAATGGATGAATAATCCCTCAATATAAATATCTCTCACTTATTTAAA	–	0.114	–

Sequence	cleaved RNA product abundance [1]	cleaved RNA product abundance [2]	cleaved RNA product abundance [3]
ACAGACGAAGGAGCCGCAAAGGAGTTTTTAAGGGATGAATAATCCCTCAATATAAATATCTCTCACTTATTTAAA	–	0.369	–
ACAGACGAAGGAGCCGCAAAGTAATTATTAAGGGATGAATAATCCCTCAATATAAATATCTCTCACTTATTTAAA	–	0.645	–
ACAGACGAAGGAGCCGCAAAGTACTTATTAAGGGATGAATAATCCCTCAATATAAATATCTCTCACTTATTTAAA	0.437	0.803	–
ACAGACGAAGGAGCCGCAAAGTAGTAATTAAGGGATGAATAATCCCTCAATATAAATATCTCTCACTTATTTAAA	–	0.191	–
ACAGACGAAGGAGCCGCAAAGTAGTTAATAAGGGATGAATAATCCCTCAATATAAATATCTCTCACTTATTTAAA	0.292	0.433	–
ACAGACGAAGGAGCCGCAAAGTAGTTAATAATGGATGAATAATCCCTCAATATAAATATCTCTCACTTATTTAAA	–	0.0855	–
ACAGACGAAGGAGCCGCAAAGTAGTTATAAAGGGATGAATAATCCCTCAATATAAATATCTCTCACTTATTTAAA	–	0.301	–
ACAGACGAAGGAGCCGCAAAGTAGTTATTAAAGGATGAATAATCCATCAATATAAATATCTCTCACTTATTTAAA	–	0.153	–
ACAGACGAAGGAGCCGCAAAGTAGTTATTAAAGGATGAATAATCCCTCAATATAAATATCTCTCACTTATTTAAA	–	0.208	–
ACAGACGAAGGAGCCGCAAAGTAGTTATTAACGGATGAATAATCCCTCAATATAAATATCTCTCACTTATTTAAA	–	0.164	–
ACAGACGAAGGAGCCGCAAAGTAGTTATTAAGAGATGAATAATCCCTCAATATAAATATCTCTCACTTATTTAAA	0.126	0.124	–
ACAGACGAAGGAGCCGCAAAGTAGTTATTAAGCGATGAATAATCCCTCAATATAAATATCTCTCACTTATTTAAA	0.0839	0.0692	–
ACAGACGAAGGAGCCGCAAAGTAGTTATTAAGGAATGAATAATCCCTCAATATAAATATCTCTCACTTATTTAAA	–	0.148	–
ACAGACGAAGGAGCCGCAAAGTAGTTATTAAGGCATGAATAATCCCTCAATATAAATATCTCTCACTTATTTAAA	0.101	0.124	–
ACAGACGAAGGAGCCGCAAAGTAGTTATTAAGGGAGGAATAATCCCTCAATATAAATATCTCTCACTTATTTAAA	–	0.557	–
ACAGACGAAGGAGCCGCAAAGTAGTTATTAAGGGATAAATAATCCCTCAATATAAATATCTCTCACTTATTTAAA	–	0.9	–
ACAGACGAAGGAGCCGCAAAGTAGTTATTAAGGGATCAATAATCCCTCAATATAAATATCTCTCACTTATTTAAA	–	1.25	–
ACAGACGAAGGAGCCGCAAAGTAGTTATTAAGGGATGAACAATCCCTCAATATAAATATCTCTCACTTATTTAAA	–	0.763	–
ACAGACGAAGGAGCCGCAAAGTAGTTATTAAGGGATGAATAACCCCTCAATATAAATATCTCTCACTTATTTAAA	–	0.762	–
ACAGACGAAGGAGCCGCAAAGTAGTTATTAAGGGATGAATAAGCCCTCAATATAAATATCTCTCACTTATTTAAA	–	0.448	–

Sequence	cleaved RNA product abundance [1]	cleaved RNA product abundance [2]	cleaved RNA product abundance [3]
ACAGACGAAGGAGCCGCAAAGTAGTTATTAAGGGATGAATAATACCTCAATATAAATATCTCTCACTTATTTAAA	0.155	0.176	–
ACAGACGAAGGAGCCGCAAAGTAGTTATTAAGGGATGAATAATCACTCAATATAAATATCTCTCACTTATTTAAA	0.11	0.183	–
ACAGACGAAGGAGCCGCAAAGTAGTTATTAAGGGATGAATAATCCATCAATATAAATATCTCTCACTTATTTAAA	0.187	0.161	–
ACAGACGAAGGAGCCGCAAAGTAGTTATTAAGGGATGAATAATCCCACAATATAAATATCTCTCACTTATTTAAA	0.199	0.223	–
ACAGACGAAGGAGCCGCAAAGTAGTTATTAAGGGATGAATAATCCCTAAATATAAATATCTCTCACTTATTTAAA	–	0.55	–
ACAGACGAAGGAGCCGCAAAGTAGTTATTAAGGGATGAATAATCCCTCAAAATAAATATCTCTCACTTATTTAAA	0.289	0.425	0.282
ACAGACGAAGGAGCCGCAAAGTAGTTATTAAGGGATGAATAATCCCTCAATACAAATATCTCTCACTTATTTAAA	–	0.0777	–
ACAGACGAAGGAGCCGCAAAGTAGTTATTAAGGGATGAATAATCCCTCAATATAAATATCTCTCACTTATTTAAA	0.953	0.98	1.09
ACAGACGAAGGAGCCGCAAAGTAGTTATTAAGGGATGAATAATCCCTCAATATAATTATCTCTCACTTATTTAAA	–	0.437	–
ACAGACGAAGGAGCCGCAAAGTAGTTATTAAGGGATGAATAATCCCTCAATATACATATCTCTCACTTATTTAAA	–	0.664	–
ACAGACGAAGGAGCCGCAAAGTAGTTATTAAGGGATGAATAATCCCTCAATATATATATCTCTCACTTATTTAAA	–	0.884	–
ACAGACGAAGGAGCCGCAAAGTAGTTATTAAGGGATGAATAATCCCTCAATCTAAATATCTCTCACTTATTTAAA	–	0.0783	–
ACAGACGAAGGAGCCGCAAAGTAGTTATTAAGGGATGAATAATCCCTCAATGTAAATATCTCTCACTTATTTAAA	–	0.13	–
ACAGACGAAGGAGCCGCAAAGTAGTTATTAAGGGATGAATAATCCCTCAATTTAAATATCTCTCACTTATTTAAA	–	0.221	–
ACAGACGAAGGAGCCGCAAAGTAGTTATTAAGGGATGAATAATCCCTCATTATAAATATCTCTCACTTATTTAAA	–	0.396	–
ACAGACGAAGGAGCCGCAAAGTAGTTATTAAGGGATGAATAATCCCTCCATATAAATATCTCTCACTTATTTAAA	0.299	0.487	–
ACAGACGAAGGAGCCGCAAAGTAGTTATTAAGGGATGAATAATCCCTGAATATAAATATCTCTCACTTATTTAAA	0.409	0.524	–
ACAGACGAAGGAGCCGCAAAGTAGTTATTAAGGGATGAATAATCCCTTAATATAAATATCTCTCACTTATTTAAA	0.869	–	0.729
ACAGACGAAGGAGCCGCAAAGTAGTTATTAAGGGATGAATAATCCTTCAATATAAATATCTCTCACTTATTTAAA	–	0.543	–
ACAGACGAAGGAGCCGCAAAGTAGTTATTAAGGGATGAATAATCTCTCAATATAAATATCTCTCACTTATTTAAA	–	0.802	–
